Among the data in patent US5849890 are Kd and binding values, retold here.

The target of this series is human chorionic gonadotropin (hCG) heterodimer (Homo sapiens) (UniProt P01215+P0DN86). As to the kind of experiment: filter. The following applies: 2'-F all pyrimidines (RNA transcript of template).
Sequence of human chorionic gonadotropin (hCG) heterodimer (Homo sapiens) (P01215 25-116, chain 1 of 2, other chains not shown): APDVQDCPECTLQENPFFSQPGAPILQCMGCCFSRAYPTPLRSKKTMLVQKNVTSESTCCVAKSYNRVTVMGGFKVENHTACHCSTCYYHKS

Regarding “GGGAGACAAGAAUAAACGCUCAANNNNNNNNNNNNNNNNNNNNNNNNNNNNNNNNNNNNNNNNUUCGACAGGAGGCUCACAACAGGC [2'-F random 40N8 pool]”, under “estimate, <1% bound at up to 80 uM”, the dissociation constant Kd (commonly the free concentration of one partner at which half of the binding sites on the other are occupied at equilibrium, for simple one-to-one binding) was more than 800 µM.
Regarding “GGGAGGACGAUGCGGNNNNNNNNNNNNNUUGAACGAUCCUUNNNNNNNNNNNNNCAGACGACUCGCCCGA [CG2N7 unselected pool]”, the binding (up to 40 uM hCG) is less than 1 % bound.
